Test results taken from patent publication US20240117303A1, “METHODS AND COMPOSITIONS FOR GENERATING HUMAN MIDBRAIN DOPAMINERGIC NEURONS FROM NEURAL PROGENITOR CELLS” (Trailhead Biosystems Inc., priority 2022, published 2024).
Several values for one entry are separate records, joined by “and”; a condition that tells them apart may be missing. Identical values can stand only once.

System: stage 3 immature neurons
Test: HD-DoE 8-factor experiment for stage 4 recipe (FIG. 27, 28, 31)
Assay type: cell-based, human
Details: for impact on expression of NR4A2: 8-factor model / dynamic profile; for expression level of PITX3 in absence of the factor / expression level of NR4A2 in absence of the factor: stage 4 recipe, other factors present; for expression level of PITX3 in absence of the factor: 40 with all factors; for expression level of NR4A2 in absence of the factor: 400 with all factors
Description: To further differentiate the cells to a mature neuronal identity, additional HD-DoE experiments were performed on the cells that were cultured in stage 1, stage 2 and stage 3 differentiation media. After 4 days, gene expression of cells in different combinatorial conditions were investigated. At this time, we focused on maximal expression of more mature dopaminergic genes such as NR4A2, PITX3 and TH (Tiklová et al. (2020) Nat Commun. 11:2434; Fiorenzano et al. (2021) Nat Commun., 12:7302). In one model, cells were treated with a combinatorial matrix with eight inputs including CHIR99021, BDNF, GDNF, Rosiglitazone, GW7647, DBZ and heparin.
To assess the impact of elimination of each validated factor identified in Example 5 for the stage 3 and stage 4 recipes, we used dynamic profile analysis and compared the expression level of genes of interest in absence of each finalized factor while others are present.
In the stage 4 recipe, each of six finalized factors were excluded while other factors were present and the expression levels of NR4A2 and PITX3 were assessed compared to the presence of all factors.

| Molecule | impact on expression of NR4A2 | expression level of PITX3 in absence of the factor | expression level of NR4A2 in absence of the factor | impact on expression level of PITX3 (dynamic profile, 8 effectors) | factor contribution (model maximized for NR4A2, positive regulatory impact, after 4 days) |
| --- | --- | --- | --- | --- | --- |
| GDNF: glial cell line-derived neurotrophic factor, GDNF agonist (protein, UniProt P39905 78-211, looked up) Glial cell line-derived …: SPDKQMAVLPRRERNRQAAAANPENSRGKGRRGQRGKNRGCVLTAIHLNVTDLGLGYETKEELIFRYCSGSCDAAETTYDKILKNLSRNRRLVSDKVGQACCRPIAFDDDLSFLDDNLVYHILRKHSAKRCGCI | positive regulatory impact | 25 | 300 | – | – |
| BDNF: brain-derived neurotrophic factor, BDNF agonist (protein, UniProt P23560 19-247, looked up) Neurotrophic factor BDNF …: APMKEANIRGQGGLAYPGVRTHGTLESVNGPKAGSRGLTSLADTFEHVIEELLDEDQKVRPNEENNKDADLYTSRVMLSSQVPLEPPLLFLLEEYKNYLDAANMSMRVRRHSDPARRGELSVCDSISEWVTAADKKTAVDMSGGTVTVLEKVPVSKGQLKQYFYETKCNPMGYTKEGCRGIDKRHWNSQCRTTQSYVRALTMDSKKRIGWRFIRIDTSCVCTLTIKRGR | positive impact | 10 | 100 | positive impact | 17 and 17.1 |
